From doi:10.1101/2020.05.12.090472 (bioRxiv, 2020) come the findings set out here.

No end group written: not given here. *: point of attachment. Biotin = O=C1N[C@H]2[C@H](CS[C@H]2CCCCC(=O)*)N1

In this assay the target is Recombinant Cdk5/p25 complex (human Cdk5 and p25 with N-terminal GST-tags) (human, UniProt Q00535 1-292; Q15078 99-307). The assay can be described thus: pull-down.

As for Biotin-ARAFGIPVRCYS [biotin-conjugated Cdk5i peptide], the binding result is “binds”.
